Test results published in PMC11420289, “IBR1, a novel endogenous IFIH1‐binding dsRNA, governs IFIH1 activation and M1 macrophage polarisation in ARDS”.

T1: IFIH1-WT-Flag (UniProt Q8R5F7 1-1025)
T1 sequence: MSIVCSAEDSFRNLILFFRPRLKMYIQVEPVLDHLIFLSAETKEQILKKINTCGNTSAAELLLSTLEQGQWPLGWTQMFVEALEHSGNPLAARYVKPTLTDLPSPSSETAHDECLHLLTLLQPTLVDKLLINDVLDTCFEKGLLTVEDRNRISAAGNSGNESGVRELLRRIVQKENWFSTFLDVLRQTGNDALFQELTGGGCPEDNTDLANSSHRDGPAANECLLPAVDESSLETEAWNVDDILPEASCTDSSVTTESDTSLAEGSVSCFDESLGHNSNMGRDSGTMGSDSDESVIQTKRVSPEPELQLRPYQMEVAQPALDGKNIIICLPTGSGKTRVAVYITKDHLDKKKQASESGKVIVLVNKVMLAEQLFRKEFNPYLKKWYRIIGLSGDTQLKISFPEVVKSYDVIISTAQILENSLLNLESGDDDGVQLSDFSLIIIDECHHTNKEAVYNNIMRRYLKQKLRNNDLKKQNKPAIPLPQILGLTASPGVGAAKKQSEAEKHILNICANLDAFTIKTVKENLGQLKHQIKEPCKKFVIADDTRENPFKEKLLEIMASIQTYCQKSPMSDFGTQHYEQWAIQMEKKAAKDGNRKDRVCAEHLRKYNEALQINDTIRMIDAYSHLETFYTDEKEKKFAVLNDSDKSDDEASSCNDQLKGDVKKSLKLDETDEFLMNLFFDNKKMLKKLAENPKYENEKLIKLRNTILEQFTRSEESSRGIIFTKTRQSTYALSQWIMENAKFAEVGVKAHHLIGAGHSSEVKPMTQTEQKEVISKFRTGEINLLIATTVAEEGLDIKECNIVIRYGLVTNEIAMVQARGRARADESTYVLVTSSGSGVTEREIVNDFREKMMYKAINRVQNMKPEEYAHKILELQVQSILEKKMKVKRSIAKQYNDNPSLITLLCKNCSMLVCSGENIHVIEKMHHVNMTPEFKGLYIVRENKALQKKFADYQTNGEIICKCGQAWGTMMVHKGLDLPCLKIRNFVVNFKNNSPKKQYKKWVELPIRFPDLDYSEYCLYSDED

B1: IBR1-M2 (ssRNA)
RNA: UGUAUUUUCUCCUUAUAAUCACUCCCUCCCGGGGCAUGUAAUUAAUUUCCUGAUGGAUUACUCACACGGUCUUGAAGAUGCAAUGUCAGCUAUUUAGGCUGUGCUAGGACUCAAUUACAACAACAUAUGCAUUAAGACAGGAACUGGCAAGCCGGGACUACAGCAACUACAGGGCUGGUGCUUCCCAACCGCUGGGCUAUAAUCUAUGAAACUGAGCCGGGAUCCAGCCAAUCAGUUAGCUAGCUCCUCAUAACAGGUCUAACUGGCUCUGGACAGCUAAGGGCUGCGCUGGAAC

Molecular target: T1, IFIH1-WT-Flag
Experiment: competition; EMSA, 50 pmol cold RNA vs biotin-IBR1-WT; EMSA: 20 mM HEPES pH 7.5, 150 mM NaCl, 1.5 mM MgCl2, 2 mM DTT, 2 mM ADPCP (so in the source), 10 min at room temperature, BisTris native gel
Conditions: protein: recombinant; tags: Flag; His

Row | Binder | binding result
1 | B1 | no binding
2 | GUUCCAGCGCAGCCCUUA (ssRNA) [IBR1-M3] | no binding
